Experimental data as given in the supplement of paper PMC9428881.
± gives the standard error.

Assay: background-corrected fluorescence of 3'-dye-labeled ssDNA relative to brightest sequence (3'-GCGCG) (fraction); higher = brighter dye fluorescence (less quenching)
In short: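 Single-stranded DNA was built on glass slides by light-directed phosphoramidite synthesis, ending in a 3' Cy3 or Cy5 dye beside each of 1024 permuted pentamers. Arrays were washed in acetonitrile for 2 h at r.t., then scanned at 532 or 635 nm before and after overnight ethylenediamine/ethanol deprotection. Each value averages 10 features per array and at least 3 syntheses. Fluorescence, corrected by subtracting unlabeled-oligo background, is scaled to the brightest sequence.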

TTTTTTGCTGCTCATGAGCATTTTTTTTTTTTTTTAAGCT [TCGAA]
background-corrected fluorescence (dye: Cy3 (3' terminal)): 0.56 ± 0.028 | background-corrected fluorescence (dye: Cy5 (3' terminal)): 0.402 ± 0.026

TTTTTTGATGCGCATCATCATTTTTTTTTTTTTTTCATGG [GGTAC]
background-corrected fluorescence (dye: Cy3 (3' terminal)): 0.6391 ± 0.0053 | background-corrected fluorescence (dye: Cy5 (3' terminal)): 0.521 ± 0.075

TTTTTTCATCATCATGATGCTTTTTTTTTTTTTTTGGGCA [ACGGG]
background-corrected fluorescence (dye: Cy3 (3' terminal)): 0.565 ± 0.022 | background-corrected fluorescence (dye: Cy5 (3' terminal)): 0.505 ± 0.024

TTTTTGCATGAGCATCATGCTTTTTTTTTTTTTTTTCTGA [AGTCT]
background-corrected fluorescence (dye: Cy3 (3' terminal)): 0.611 ± 0.018 | background-corrected fluorescence (dye: Cy5 (3' terminal)): 0.56 ± 0.037

TTTTTGCATGATGCTCAGCATTTTTTTTTTTTTTTTCAGT [TGACT]
background-corrected fluorescence (dye: Cy3 (3' terminal)): 0.596 ± 0.016 | background-corrected fluorescence (dye: Cy5 (3' terminal)): 0.488 ± 0.05

TTTTTGCATCATGATGATGCTTTTTTTTTTTTTTTTGCCA [ACCGT]
background-corrected fluorescence (dye: Cy3 (3' terminal)): 0.519 ± 0.0069 | background-corrected fluorescence (dye: Cy5 (3' terminal)): 0.403 ± 0.029

TTTTTGCATCATGATGATGATTTTTTTTTTTTTTTTGCCC [CCCGT]
background-corrected fluorescence (dye: Cy3 (3' terminal)): 0.378 ± 0.032 | background-corrected fluorescence (dye: Cy5 (3' terminal)): 0.272 ± 0.016

TTTTTTGATCAGCATGCTGCTTTTTTTTTTTTTTTCGTAA [AATGC]
background-corrected fluorescence (dye: Cy3 (3' terminal)): 0.553 ± 0.045 | background-corrected fluorescence (dye: Cy5 (3' terminal)): 0.428 ± 0.024

TTTTTTGCTGCGCATGATCATTTTTTTTTTTTTTTAATCG [GCTAA]
background-corrected fluorescence (dye: Cy3 (3' terminal)): 0.504 ± 0.0074 | background-corrected fluorescence (dye: Cy5 (3' terminal)): 0.399 ± 0.026

TTTTTTGCTGCTGCGCATGCTTTTTTTTTTTTTTTAAATA [ATAAA]
background-corrected fluorescence (dye: Cy3 (3' terminal)): 0.564 ± 0.053 | background-corrected fluorescence (dye: Cy5 (3' terminal)): 0.451 ± 0.031

TTTTTGCAGCATGATGCTGCTTTTTTTTTTTTTTTTTCAA [AACTT]
background-corrected fluorescence (dye: Cy3 (3' terminal)): 0.545 ± 0.04 | background-corrected fluorescence (dye: Cy5 (3' terminal)): 0.422 ± 0.055

TTTTTTGCTCATCAGCATGCTTTTTTTTTTTTTTTAGGTA [ATGGA]
background-corrected fluorescence (dye: Cy3 (3' terminal)): 0.564 ± 0.027 | background-corrected fluorescence (dye: Cy5 (3' terminal)): 0.465 ± 0.06

TTTTTTGCTCATGATGCTGATTTTTTTTTTTTTTTAGCAC [CACGA]
background-corrected fluorescence (dye: Cy3 (3' terminal)): 0.415 ± 0.019 | background-corrected fluorescence (dye: Cy5 (3' terminal)): 0.328 ± 0.012

TTTTTGCAGCATCAGCATGCTTTTTTTTTTTTTTTTTGTA [ATGTT]
background-corrected fluorescence (dye: Cy3 (3' terminal)): 0.576 ± 0.02 | background-corrected fluorescence (dye: Cy5 (3' terminal)): 0.487 ± 0.053

TTTTTTGCTCATGATGAGCATTTTTTTTTTTTTTTAGCCT [TCCGA]
background-corrected fluorescence (dye: Cy3 (3' terminal)): 0.481 ± 0.039 | background-corrected fluorescence (dye: Cy5 (3' terminal)): 0.394 ± 0.083

TTTTTTGCTCAGCAGCAGCATTTTTTTTTTTTTTTAGTTT [TTTGA]
background-corrected fluorescence (dye: Cy3 (3' terminal)): 0.577 ± 0.017 | background-corrected fluorescence (dye: Cy5 (3' terminal)): 0.404 ± 0.022

TTTTTGCAGCATGATCATGATTTTTTTTTTTTTTTTTCGC [CGCTT]
background-corrected fluorescence (dye: Cy3 (3' terminal)): 0.503 ± 0.031 | background-corrected fluorescence (dye: Cy5 (3' terminal)): 0.406 ± 0.088

TTTTTTCATGATGCGCATCATTTTTTTTTTTTTTTGCATG [GTACG]
background-corrected fluorescence (dye: Cy3 (3' terminal)): 0.508 ± 0.023 | background-corrected fluorescence (dye: Cy5 (3' terminal)): 0.385 ± 0.023

TTTTTTGAGCATGCTGCTGCTTTTTTTTTTTTTTTCTAAA [AAATC]
background-corrected fluorescence (dye: Cy3 (3' terminal)): 0.569 ± 0.008 | background-corrected fluorescence (dye: Cy5 (3' terminal)): 0.457 ± 0.021

TTTTTTCATGCTCATGATGCTTTTTTTTTTTTTTTGAGCA [ACGAG]
background-corrected fluorescence (dye: Cy3 (3' terminal)): 0.585 ± 0.025 | background-corrected fluorescence (dye: Cy5 (3' terminal)): 0.43 ± 0.035

TTTTTTCATGCTGAGCATGATTTTTTTTTTTTTTTGACTC [CTCAG]
background-corrected fluorescence (dye: Cy3 (3' terminal)): 0.419 ± 0.021 | background-corrected fluorescence (dye: Cy5 (3' terminal)): 0.317 ± 0.028

TTTTTTGCTGATCAGCATGCTTTTTTTTTTTTTTTACGTA [ATGCA]
background-corrected fluorescence (dye: Cy3 (3' terminal)): 0.61 ± 0.016 | background-corrected fluorescence (dye: Cy5 (3' terminal)): 0.465 ± 0.024

TTTTTTGAGCATCAGCATCATTTTTTTTTTTTTTTCTGTG [GTGTC]
background-corrected fluorescence (dye: Cy3 (3' terminal)): 0.559 ± 0.039 | background-corrected fluorescence (dye: Cy5 (3' terminal)): 0.425 ± 0.021

TTTTTTCATCATCATCATGATTTTTTTTTTTTTTTGGGGC [CGGGG]
background-corrected fluorescence (dye: Cy3 (3' terminal)): 0.631 ± 0.03 | background-corrected fluorescence (dye: Cy5 (3' terminal)): 0.532 ± 0.033

TTTTTTGATCATCATCAGCATTTTTTTTTTTTTTTCGGGT [TGGGC]
background-corrected fluorescence (dye: Cy3 (3' terminal)): 0.7 ± 0.013 | background-corrected fluorescence (dye: Cy5 (3' terminal)): 0.616 ± 0.068

TTTTTTGATCATGATGCTGATTTTTTTTTTTTTTTCGCAC [CACGC]
background-corrected fluorescence (dye: Cy3 (3' terminal)): 0.435 ± 0.025 | background-corrected fluorescence (dye: Cy5 (3' terminal)): 0.342 ± 0.06

TTTTTGCATGCGCATGCTCATTTTTTTTTTTTTTTTATAG [GATAT]
background-corrected fluorescence (dye: Cy3 (3' terminal)): 0.548 ± 0.02 | background-corrected fluorescence (dye: Cy5 (3' terminal)): 0.418 ± 0.032

TTTTTGCAGCATGAGCATGCTTTTTTTTTTTTTTTTTCTA [ATCTT]
background-corrected fluorescence (dye: Cy3 (3' terminal)): 0.467 ± 0.02 | background-corrected fluorescence (dye: Cy5 (3' terminal)): 0.404 ± 0.036

TTTTTTGCGCATGATCATGATTTTTTTTTTTTTTTATCGC [CGCTA]
background-corrected fluorescence (dye: Cy3 (3' terminal)): 0.534 ± 0.017 | background-corrected fluorescence (dye: Cy5 (3' terminal)): 0.439 ± 0.02

TTTTTTCATGATCATGATGATTTTTTTTTTTTTTTGCGCC [CCGCG]
background-corrected fluorescence (dye: Cy3 (3' terminal)): 0.505 ± 0.024 | background-corrected fluorescence (dye: Cy5 (3' terminal)): 0.4 ± 0.041

TTTTTTGATGCTCATGATGATTTTTTTTTTTTTTTCAGCC [CCGAC]
background-corrected fluorescence (dye: Cy3 (3' terminal)): 0.462 ± 0.011 | background-corrected fluorescence (dye: Cy5 (3' terminal)): 0.321 ± 0.042

TTTTTTGCGCATGCGCATCATTTTTTTTTTTTTTTATATG [GTATA]
background-corrected fluorescence (dye: Cy3 (3' terminal)): 0.531 ± 0.013 | background-corrected fluorescence (dye: Cy5 (3' terminal)): 0.407 ± 0.024

TTTTTTGCTGATGATGATGCTTTTTTTTTTTTTTTACCCA
background-corrected fluorescence (dye: Cy3 (3' terminal)): 0.462 ± 0.029 | background-corrected fluorescence (dye: Cy5 (3' terminal)): 0.351 ± 0.019

TTTTTGCAGCATCATGATCATTTTTTTTTTTTTTTTTGCG [GCGTT]
background-corrected fluorescence (dye: Cy3 (3' terminal)): 0.559 ± 0.028 | background-corrected fluorescence (dye: Cy5 (3' terminal)): 0.46 ± 0.036
